{"source": "the supplement of paper PMC9170038", "key": {"MS2 coat protein [1]": {"system": "MS2 coat protein", "test": "apparent KD of MS2 coat protein, switch ON state; designed switch direction (-1 OFF switch, 1 ON switch): -1; higher = weaker reporter binding", "conditions": "FMN input: 0 or 200 uM; Eterna round: R93 (includes R88 designs)", "summary_of_the_method": "(§1)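 The buffer was 100 mM Tris-HCl pH 7.5 with 80 mM KCl and 4 mM MgCl2, used without or with constant ligand. In it, RNA switches transcribed on-chip from Illumina sequencing clusters were titrated with SNAP-549-labelled MS2 coat protein in twofold steps from 0.7 or 1.5 nM to 3 µM. Apparent KD for each design is the median of its normalised cluster binding-curve fits.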"}, "MS2 coat protein [2]": {"system": "MS2 coat protein", "test": "apparent KD of MS2 coat protein, switch OFF state (with FMN for OFF switches, without FMN for ON switches); designed switch direction (-1 OFF switch, 1 ON switch): -1; higher = weaker reporter binding", "conditions": "FMN input: 0 or 200 uM; Eterna round: R93 (includes R88 designs)", "summary_of_the_method": "as §1"}}, "data": [{"sequence": "AAAGGAUCAGGAUAUGUGUGGAAAAAGUGUAUCCAAAAAAAACAUGAGGAUCACCCAUGUAGAAGGGAUCCAAA [Mod 2 of Normal (20/19) by Nando, Round 1]", "values": [{"measurement": "apparent KD of MS2 coat protein", "setting": "MS2 coat protein [1]", "result": 177, "unit": "nM"}, {"measurement": "apparent KD of MS2 coat protein", "setting": "MS2 coat protein [2]", "result": 441, "unit": "nM"}]}, {"sequence": "AAAACUCGAGGAUAUACGAACAUGUCAAAAGACGUGAAGGGACAUGAGGAUCACCCAUGUAGAAGGCGAGAAAA [Mat - Exclusion 2 - JL-Eli mod - D45]", "values": [{"measurement": "apparent KD of MS2 coat protein", "setting": "MS2 coat protein [1]", "result": 55.4, "unit": "nM"}, {"measurement": "apparent KD of MS2 coat protein", "setting": "MS2 coat protein [2]", "result": 123, "unit": "nM"}]}, {"sequence": "AAAAAGGUAGGAUAUACAUGAGGAUCACCCAUGUAAAAAAAAACAGAAAAAAACAAAUGUAGAAGGGCCAAAAA [Ex3 Malc#5]", "values": [{"measurement": "apparent KD of MS2 coat protein", "setting": "MS2 coat protein [1]", "result": 25.9, "unit": "nM"}, {"measurement": "apparent KD of MS2 coat protein", "setting": "MS2 coat protein [2]", "result": 35.6, "unit": "nM"}]}, {"sequence": "AUAAACAGAGGAUAUACGCGGAUUAUUGAAAUUAUUGAUUCACAUGAGGAUCACCCAUGUAGAAGGCUGGAAAA [LROPPY Exclusion 2 - v04_doubled Us]", "values": [{"measurement": "apparent KD of MS2 coat protein", "setting": "MS2 coat protein [1]", "result": 35.7, "unit": "nM"}, {"measurement": "apparent KD of MS2 coat protein", "setting": "MS2 coat protein [2]", "result": 124, "unit": "nM"}]}, {"sequence": "AAAGCGGCAGGAUAUACAGGAACAAAAGUAUGUGCAUCCGCACAUGAGGAUCACCCAUGUAGAAGGGCUAAUAA [Ontiti]", "values": [{"measurement": "apparent KD of MS2 coat protein", "setting": "MS2 coat protein [1]", "result": 167, "unit": "nM"}, {"measurement": "apparent KD of MS2 coat protein", "setting": "MS2 coat protein [2]", "result": 270, "unit": "nM"}]}, {"sequence": "AAAUUGUCAGGAUAUCGUAUAAUAUGGAAAACAUAGAGAUACGAGAAGGGACAUGAGGAUCACCCAUGUAAAAC [May 96]", "values": [{"measurement": "apparent KD of MS2 coat protein", "setting": "MS2 coat protein [1]", "result": 36.1, "unit": "nM"}, {"measurement": "apparent KD of MS2 coat protein", "setting": "MS2 coat protein [2]", "result": 31.1, "unit": "nM"}]}, {"sequence": "AAAAAACAUGAGGAUCACCCAUGUGAGGAUAUCGGAAAAGGAAAAAAAAAAAAGAAGACGAGAAGGCACACCAA", "values": [{"measurement": "apparent KD of MS2 coat protein", "setting": "MS2 coat protein [1]", "result": 28.6, "unit": "nM"}, {"measurement": "apparent KD of MS2 coat protein", "setting": "MS2 coat protein [2]", "result": 25.1, "unit": "nM"}]}, {"sequence": "AACAGUACAGGAUAUACAUGAGGAUCACCCAUGUGAGCAUUAAAAGGCGUACCUAAAAGUAGAAGGGUACUGGA [JL Maslow Revisted mod 22]", "values": [{"measurement": "apparent KD of MS2 coat protein", "setting": "MS2 coat protein [1]", "result": 24.8, "unit": "nM"}, {"measurement": "apparent KD of MS2 coat protein", "setting": "MS2 coat protein [2]", "result": 66.7, "unit": "nM"}]}, {"sequence": "AAAAAACAUGAGGAUCACCCAUGUGAGGAUAUGCGAAAUAAAAAUAAAAUAAUAAAAAGCAGAAGGCACAAAAA [Amethyst 64]", "values": [{"measurement": "apparent KD of MS2 coat protein", "setting": "MS2 coat protein [1]", "result": 30.1, "unit": "nM"}, {"measurement": "apparent KD of MS2 coat protein", "setting": "MS2 coat protein [2]", "result": 40.6, "unit": "nM"}]}, {"sequence": "AAGAAGGCAGGAUAUACAAAAUAAAAGAAAAGAAAGAAAGAACAUGAGGAUCACCCAUGUAGAAGGGUCAAGAA [Sankhenre Sewadjtu]", "values": [{"measurement": "apparent KD of MS2 coat protein", "setting": "MS2 coat protein [1]", "result": 47.9, "unit": "nM"}, {"measurement": "apparent KD of MS2 coat protein", "setting": "MS2 coat protein [2]", "result": 37.2, "unit": "nM"}]}, {"sequence": "GAAAAUGGAGGAUAUACGUACAUGUCAAAAGACGUGAAGGGACAUGAGGAUCACCCAUGUAGAAGGCUAAAAAG [Mat - Exclusion 2 - JL mod - D96]", "values": [{"measurement": "apparent KD of MS2 coat protein", "setting": "MS2 coat protein [1]", "result": 101, "unit": "nM"}, {"measurement": "apparent KD of MS2 coat protein", "setting": "MS2 coat protein [2]", "result": 15.4, "unit": "nM"}]}, {"sequence": "ACCUGACAUGAGGAUCACCCAUGUCAGGAUAUGUACAUCAGGAAAAAAAAACUGAUGUACAGAAGGGACAAGGG [Design 6: Super Stable - A-U mutation 2]", "values": [{"measurement": "apparent KD of MS2 coat protein", "setting": "MS2 coat protein [1]", "result": 17.8, "unit": "nM"}, {"measurement": "apparent KD of MS2 coat protein", "setting": "MS2 coat protein [2]", "result": 13.7, "unit": "nM"}]}, {"sequence": "CUCAAGUUAGGAUAUGGAAGAAAAGAAGAGAAAGAAAAGAACCAGAAGGAACAUGAGGAUCACCCAUGUAAGAA [EteRNA is fun!]", "values": [{"measurement": "apparent KD of MS2 coat protein", "setting": "MS2 coat protein [1]", "result": 58.1, "unit": "nM"}, {"measurement": "apparent KD of MS2 coat protein", "setting": "MS2 coat protein [2]", "result": 62.7, "unit": "nM"}]}, {"sequence": "AAGAAGCAAGGAUAUACUAAAGAAAUGAAAAGAAAUAAAGAACAUGAGGAUCACCCAUGUAGAAGGUGCAAGAA [Webenre]", "values": [{"measurement": "apparent KD of MS2 coat protein", "setting": "MS2 coat protein [1]", "result": 50.4, "unit": "nM"}, {"measurement": "apparent KD of MS2 coat protein", "setting": "MS2 coat protein [2]", "result": 39.3, "unit": "nM"}]}, {"sequence": "AAGAAGUGAGGAUAUCGAAGACUGUCGAAAAGACAGUCGAACGAGAAGGCACAUGAGGAUCACCCAUGUGGGAG [Mat - Exaclusion 4 - Eli mod - D71]", "values": [{"measurement": "apparent KD of MS2 coat protein", "setting": "MS2 coat protein [1]", "result": 80.5, "unit": "nM"}, {"measurement": "apparent KD of MS2 coat protein", "setting": "MS2 coat protein [2]", "result": 176, "unit": "nM"}]}, {"sequence": "AAAAAACAUGAGGAUCACCCAUGUGAGGAUAUGCUAUGGAAAAUAAAAAUAAAACAUAGCAGAAGGCACACCAA [Denovo 16]", "values": [{"measurement": "apparent KD of MS2 coat protein", "setting": "MS2 coat protein [1]", "result": 31.4, "unit": "nM"}, {"measurement": "apparent KD of MS2 coat protein", "setting": "MS2 coat protein [2]", "result": 37.4, "unit": "nM"}]}, {"sequence": "AAAAAGUGAGGAUAUUCGGAUAGGAAAACGAAAACCUAUCCGAAGAAGGCACAUGAGGAUCACCCAUGUGAAAA [67% Ecls-II - Early G + late G segment 1]", "values": [{"measurement": "apparent KD of MS2 coat protein", "setting": "MS2 coat protein [1]", "result": 27.5, "unit": "nM"}, {"measurement": "apparent KD of MS2 coat protein", "setting": "MS2 coat protein [2]", "result": 24.1, "unit": "nM"}]}, {"sequence": "AGUUGGCGAGGAUAUACAUGAGGAUCACCCAUGUGAGAGAAAAAAGUGAGAAAGAAAAGUAGAAGGCGCUGACU [salish99-ex3-06]", "values": [{"measurement": "apparent KD of MS2 coat protein", "setting": "MS2 coat protein [1]", "result": 46.4, "unit": "nM"}, {"measurement": "apparent KD of MS2 coat protein", "setting": "MS2 coat protein [2]", "result": 307, "unit": "nM"}]}]}
